Experimental data reported in the supplement of paper PMC5998384.

Columns and labels:
[1] = system: HeLa Kyoto; assay: thermal stability score vs G1/S (z-score of summed log2 fold changes over temperatures); higher = more thermally stable than in G1/S
[2] = system: HeLa Kyoto; assay: solubility change mitosis vs G1/S (difference of NP-40 vs SDS log2 ratios) (log2 ratio difference); higher = more soluble in mitosis
[3] = system: HeLa Kyoto; assay: solubility in G1/S (NP-40 vs SDS abundance) (log2 ratio); higher = more soluble; conditions: cell cycle stage: G1/S
[4] = system: HeLa Kyoto; assay: melting temperature (median over replicates), in situ; higher = more thermally stable
[5] = cell cycle stage: early G1 (4.5 h after nocodazole release)
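Throughout, for melting temperature (median over replicates), in situ: HeLa Kyoto cells synchronized by double thymidine or nocodazole block, proteins quantified by TMT10plex mass spectrometry, three independent biological replicates.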
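Throughout, for solubility change mitosis vs G1/S (difference of NP-40 vs SDS log2 ratios): synchronized HeLa Kyoto cells (double thymidine block for G1/S, nocodazole release for mitosis), protein amounts in NP-40 versus SDS lysates quantified by mass spectrometry, three biological replicates.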
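Throughout, for solubility in G1/S (NP-40 vs SDS abundance): HeLa Kyoto cells arrested at G1/S by double thymidine block, proteins quantified by TMT10plex mass spectrometry in mild NP-40 versus SDS extracts, three biological replicates.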
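Throughout, for thermal stability score vs G1/S (z-score of summed log2 fold changes over temperatures): synchronized HeLa Kyoto cells, proteins quantified by TMT10plex mass spectrometry, three biological replicates, mitosis taken 0.5 h after nocodazole release, G1/S directly after double thymidine block.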

Sequence	thermal stability score [1, 5]	thermal stability score ([1]; cell cycle stage: mitosis)	solubility change mitosis (log2) [2]	solubility in G1/S (log2) [3]	melting temperature ([4]; cell cycle stage: G1/S)	melting temperature ([4]; cell cycle stage: mitosis)
MSLDIQSLDIQCEELSDARWAELLPLLQQCQVVRLDDCGLTEARCKDISSALRVNPALAELNLRSNELGDVGVHCVLQGLQTPSCKIQKLSLQNCCLTGAGCGVLSSTLRTLPTLQELHLSDNLLGDAGLQLLCEGLLDPQCRLEKLQLEYCSLSAASCEPLASVLRAKPDFKELTVSNNDINEAGVRVLCQGLKDSPCQLEALKLESCGVTSDNCRDLCGIVASKASLRELALGSNKLGDVGMAELCPGLLHPSSRLRTLWIWECGITAKGCGDLCRVLRAKESLKELSLAGNELGDEGARLLCETLLEPGCQLESLWVKSCSFTAACCSHFSSVLAQNRFLLELQISNNRLEDAGVRELCQGLGQPGSVLRVLWLADCDVSDSSCSSLAATLLANHSLRELDLSNNCLGDAGILQLVESVRQPGCLLEQLVLYDIYWSEEMEDRLQALEKDKPSLRVIS [RNH1]	1.78	1.35	-0.113	0.188	52.8 °C	52.8 °C
MSLEQEEETQPGRLLGRRDAVPAFIEPNVRFWITERQSFIRRFLQWTELLDPTNVFISVESIENSRQLLCTNEDVSSPASADQRIQEAWKRSLATVHPDSSNLIPKLFRPAAFLPFMAPTVFLSMTPLKGIKSVILPQVFLCAYMAAFNSINGNRSYTCKPLERSLLMAGAVASSTFLGVIPQFVQMKYGLTGPWIKRLLPVIFLVQASGMNVYMSRSLESIKGIAVMDKEGNVLGHSRIAGTKAVRETLASRIVLFGTSALIPEVFTYFFKRTQYFRKNPGSLWILKLSCTVLAMGLMVPFSFSIFPQIGQIQYCSLEEKIQSPTEETEIFYHRGV [SFXN4]	0.0593	-1.77	-0.195	-0.194	53.9 °C	54.8 °C
MSLEQRSLHCKPEEALEAQQEALGLVCVQAATSSSSPLVLGTLEEVPTAGSTDPPQSPQGASAFPTTINFTRQRQPSEGSSSREEEGPSTSCILESLFRAVITKKVADLVGFLLLKYRAREPVTKAEMLESVIKNYKHCFPEIFGKASESLQLVFGIDVKEADPTGHSYVLVTCLGLSYDGLLGDNQIMPKTGFLIIVLVMIAMEGGHAPEEEIWEELSVMEVYDGREHSAYGEPRKLLTQDLVQEKYLEYRQVPDSDPARYEFLWGPRALAETSYVKVLEYVIKVSARVRFFFPSLREAALREEEEGV [MAGEA1]	0.313	2.38	-0.0297	-0.178	48.4 °C	49.5 °C
MSLKSERRGIHVDQSDLLCKKGCGYYGNPAWQGFCSKCWREEYHKARQKQIQEDWELAERLQREEEEAFASSQSSQGAQSLTFSKFEEKKTNEKTRKVTTVKKFFSASSRVGSKKEIQEAKAPSPSINRQTSIETDRVSKEFIEFLKTFHKTGQEIYKQTKLFLEGMHYKRDLSIEEQSECAQDFYHNVAERMQTRGKVPPERVEKIMDQIEKYIMTRLYKYVFCPETTDDEKKDLAIQKRIRALRWVTPQMLCVPVNEDIPEVSDMVVKAITDIIEMDSKRVPRDKLACITKCSKHIFNAIKITKNEPASADDFLPTLIYIVLKGNPPRLQSNIQYITRFCNPSRLMTGEDGYYFTNLCCAVAFIEKLDAQSLNLSQEDFDRYMSGQTSPRKQEAESWSPDACLGVKQMYKNLDLLSQLNERQERIMNEAKKLEKDLIDWTDGIAREVQDIVEKYPLEIKPPNQPLAAIDSENVENDKLPPPLQPQVYAG [RABGEF1]	0.899	-2.37	-0.0709	0.143	52.3 °C	50.3 °C
MSLQWTAVATFLYAEVFVVLLLCIPFISPKRWQKIFKSRLVELLVSYGNTFFVVLIVILVLLVIDAVREIRKYDDVTEKVNLQNNPGAMEHFHMKLFRAQRNLYIAGFSLLLSFLLRRLVTLISQQATLLASNEAFKKQAESASEAAKKYMEENDQLKKGAAVDGGKLDVGNAEVKLEEENRSLKADLQKLKDELASTKQKLEKAENQVLAMRKQSEGLTKEYDRLLEEHAKLQAAVDGPMDKKEE [BCAP31]	-4.24	-4.65	-0.101	0.132	55.5 °C	55.5 °C
MSLSSGASGGKGVDANPVETYDSGDEWDIGVGNLIIDLDADLEKDQQKLEMSGSKEVGIPAPNAVATLPDNIKFVTPVPGPQGKEGKSKSKRSKSGKDTSKPTPGTSLFTPSEGAASKKEVQGRSGDGANAGGLVAAIAPKGSEKAAKASRSVAGSKKEKENSSSKSKKERSEGVGTCSEKDPGVLQPVPLGGRGGQYDGSAGVDTGAVEPLGSIAIEPGAALNPLGTKPEPEEGENECRLLKKVKSEKMESPVSTPAVLPIHLLVPVVNNDISSPCEQIMVRTRSVGVNTCDVALATEPECLGPCEPGTSVNLEGIVWQETEDGMLVVNVTWRNKTYVGTLLDCTRHDWAPPRFCDSPTSDLEMRNGRGRGKRMRPNSNTPVNETATASDSKGTSNSSKTRAGANSKGRRGSQNSSEHRPPASSTSEDVKASPSSANKRKNKPLSDMELNSSSEDSKGSKRVRTNSMGSATGPLPGTKVEPTVLDRNCPSPVLIDCPHPNCNKKYKHINGLKYHQAHAHTDDDSKPEADGDSEYGEEPILHADLGSCNGASVSQKGSLSPARSATPKVRLVEPHSPSPSSKFSTKGLCKKKLSGEGDTDLGALSNDGSDDGPSVMDETSNDAFDSLERKCMEKEKCKKPSSLKPEKIPSKSLKSARPIAPAIPPQQIYTFQTATFTAASPGSSSGLTATVAQAMPNSPQLKPIQPKPTVMGEPFTVNPALTPAKDKKKKDKKKKESSKELESPLTPGKVCRAEEGKSPFRESSGDGMKMEGLLNGSSDPHQSRLASIKAEADKIYSFTDNAPSPSIGGSSRLENTTPTQPLTPLHVVTQNGAEASSVKTNSPAYSDISDAGEDGEGKVDSVKSKDAEQLVKEGAKKTLFPPQPQSKDSPYYQGFESYYSPSYAQSSPGALNPSSQAGVESQALKTKRDEEPESIEGKVKNDICEEKKPELSSSSQQPSVIQQRPNMYMQSLYYNQYAYVPPYGYSDQSYHTHLLSTNTAYRQQYEEQQKRQSLEQQQRGVDKKAEMGLKEREAALKEEWKQKPSIPPTLTKAPSLTDLVKSGPGKAKEPGADPAKSVIIPKLDDSSKLPGQAPEGLKVKLSDASHLSKEASEAKTGAECGRQAEMDPILWYRQEAEPRMWTYVYPAKYSDIKSEDERWKEERDRKLKEERSRSKDSVPKEDGKESTSSDCKLPTSEESRLGSKEPRPSVHVPVSSPLTQHQSYIPYMHGYSYSQSYDPNHPSYRSMPAVMMQNYPGSYLPSSYSFSPYGSKVSGGEDADKARASPSVTCKSSSESKALDILQQHASHYKSKSPTISDKTSQERDRGGCGVVGGGGSCSSVGGASGGERSVDRPRTSPSQRLMSTHHHHHHLGYSLLPAQYNLPYAAGLSSTAIVASQQGSTPSLYPPPRR [ZNF609]	-1.11	2.18	0.204	0.0412	49.9 °C	52.1 °C
MSMPDAMPLPGVGEELKQAKEIEDAEKYSFMATVTKAPKKQIQFADDMQEFTKFPTKTGRRSLSRSISQSSTDSYSSAASYTDSSDDEVSPREKQQTNSKGSSNFCVKNIKQAEFGRREIEIAEQDMSALISLRKRAQGEKPLAGAKIVGCTHITAQTAVLIETLCALGAQCRWSACNIYSTQNEVAAALAEAGVAVFAWKGESEDDFWWCIDRCVNMDGWQANMILDDGGDLTHWVYKKYPNVFKKIRGIVEESVTGVHRLYQLSKAGKLCVPAMNVNDSVTKQKFDNLYCCRESILDGLKRTTDVMFGGKQVVVCGYGEVGKGCCAALKALGAIVYITEIDPICALQACMDGFRVVKLNEVIRQVDVVITCTGNKNVVTREHLDRMKNSCIVCNMGHSNTEIDVTSLRTPELTWERVRSQVDHVIWPDGKRVVLLAEGRLLNLSCSTVPTFVLSITATTQALALIELYNAPEGRYKQDVYLLPKKMDEYVASLHLPSFDAHLTELTDDQAKYLGLNKNGPFKPNYYRY [AHCYL1]	-5.66	-9.49	-0.119	-0.111	56.4 °C	54.6 °C
MSNEVETSATNGQPDQQAAPKAPSKKEKKKGPEKTDEYLLARFKGDGVKYKAKLIGIDDVPDARGDKMSQDSMMKLKGMAAAGRSQGQHKQRIWVNISLSGIKIIDEKTGVIEHEHPVNKISFIARDVTDNRAFGYVCGGEGQHQFFAIKTGQQAEPLVVDLKDLFQVIYNVKKKEEEKKKIEEASKAVENGSEALMILDDQTNKLKSGVDQMDLFGDMSTPPDLNSPTESKDILLVDLNSEIDTNQNSLRENPFLTNGITSCSLPRPTPQASFLPENAFSANLNFFPTPNPDPFRDDPFTQPDQSTPSSFDSLKSPDQKKENSSSSSTPLSNGPLNGDVDYFGQQFDQISNRTGKQEAQAGPWPFSSSQTQPAVRTQNGVSEREQNGFSVKSSPNPFVGSPPKGLSIQNGVKQDLESSVQSSPHDSIAIIPPPQSTKPGRGRRTAKSSANDLLASDIFAPPVSEPSGQASPTGQPTALQPNPLDLFKTSAPAPVGPLVGLGGVTVTLPQAGPWNTASLVFNQSPSMAPGAMMGGQPSGFSQPVIFGTSPAVSGWNQPSPFAASTPPPVPVVWGPSASVAPNAWSTTSPLGNPFQSNIFPAPAVSTQPPSMHSSLLVTPPQPPPRAGPPKDISSDAFTALDPLGDKEIKDVKEMFKDFQLRQPPAVPARKGEQTSSGTLSAFASYFNSKVGIPQENADHDDFDANQLLNKINEPPKPAPRQVSLPVTKSTDNAFENPFFKDSFGSSQASVASSQPVSSEMYRDPFGNPFA [DAB2]	2.68	5.04	-0.113	0.277	48.5 °C	50.3 °C
MSNRVVCREASHAGSWYTASGPQLNAQLEGWLSQVQSTKRPARAIIAPHAGYTYCGSCAAHAYKQVDPSITRRIFILGPSHHVPLSRCALSSVDIYRTPLYDLRIDQKIYGELWKTGMFERMSLQTDEDEHSIEMHLPYTAKAMESHKDEFTIIPVLVGALSESKEQEFGKLFSKYLADPSNLFVVSSDFCHWGQRFRYSYYDESQGEIYRSIEHLDKMGMSIIEQLDPVSFSNYLKKYHNTICGRHPIGVLLNAITELQKNGMNMSFSFLNYAQSSQCRNWQDSSVSYAAGALTVH [MEMO1]	-0.361	-0.452	-0.0409	0.029	53.7 °C	54.2 °C
MSNVSEERRKRQQNIKEGLQFIQSPLSYPGTQEQYAVYLRALVRNLFNEGNDVYREHDWNNSISQYTEALNIADYAKSEEILIPKEIIEKLYINRIACYSNMGFHDKVLEDCNIVLSLNASNCKALYRKSKALSDLGRYKKAYDAVAKCSLAVPQDEHVIKLTQELAQKLGFKIRKAYVRAELSLKSVPGDGATKALNHSVEDIEPDLLTPRQEAVPVVSLPAPSFSHEVGSELASVPVMPLTSILPLQVEESALPSAVLANGGKMPFTMPEAFLDDGDMVLGDELDDLLDSAPETNETVMPSALVRGPLQTASVSPSMPFSASLLGTLPIGARYAPPPSFSEFYPPLTSSLEDFCSSLNSFSMSESKRDLSTSTSREGTPLNNSNSSLLLMNGPGSLFASENFLGISSQPRNDFGNFFGSAVTKPSSSVTPRHPLEGTHELRQACQICFVKSGPKLMDFTYHANIDHKCKKDILIGRIKNVEDKSWKKIRPRPTKTNYEGPYYICKDVAAEEECRYSGHCTFAYCQEEIDVWTLERKGAFSREAFFGGNGKINLTVFKLLQEHLGEFIFLCEKCFDHKPRMISKRNKDNSTACSHPVTKHEFEDNKCLVHILRETTVKYSKIRSFHGQCQLDLCRHEVRYGCLREDECFYAHSLVELKVWIMQNETGISHDAIAQESKRYWQNLEANVPGAQVLGNQIMPGFLNMKIKFVCAQCLRNGQVIEPDKNRKYCSAKARHSWTKDRRAMRVMSIERKKWMNIRPLPTKKQMPLQFDLCNHIASGKKCQYVGNCSFAHSPEEREVWTYMKENGIQDMEQFYELWLKSQKNEKSEDIASQSNKENGKQIHMPTDYAEVTVDFHCWMCGKNCNSEKQWQGHISSEKHKEKVFHTEDDQYCWQHRFPTGYFSICDRYMNGTCPEGNSCKFAHGNAELHEWEERRDALKMKLNKARKDHLIGPNDNDFGKYSFLFKDLN [ZC3H7A]	0.548	2.36	0.169	-0.49	48.5 °C	47.7 °C
